{"source": "patent US20130079286A1", "about": "(Pieris, published 2013)", "key": {"[1]": {"biological_target": "T1, Aβ40 peptide, non-labeled (human)", "T1 construct": "Non-labeled synthetic peptide (W. M. Keck Laboratory); also called Abeta40; amyloid beta peptide", "T1 sequence (peptide, as listed by the source)": "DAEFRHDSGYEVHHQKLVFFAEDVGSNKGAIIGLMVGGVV", "experiment": "SPOT membrane of overlapping Aβ40 peptides, 50 nM mutein"}, "[2]": {"biological_target": "T2, Aβ40 hexamer VFFAED on SPOT membrane", "T2 construct": "Called a minimal motif found with the hexameric and decameric peptides", "T2 peptide": "Ac-VFFAED-{SPOT membrane}", "experiment": "SPOT membrane, hexameric and decameric peptides", "method": "(§1) The SPOT membrane (Amino-PEG500-UC540 sheet, 100×150 mm, Intavis, Köln, Germany) for mapping the Aβ epitope of the Lcn2 muteins S1-A4 and US7 was prepared in an automated procedure as described by Frank ((2002) J. Immunol. Methods 262, 13-26) using a MultiPep RS instrument (Intavis, Köln, Germany) and activated amino acids from the same vendor. The Aβ40 amino acid sequence (SEQ ID NO: 29) was synthesized on the membrane in successive hexamers, decamers, and pentadecamers, each with a dislocation of 1 amino acid, thus covering the entire sequence. The C-termini of these peptides became covalently attached to the membrane whereas their N-termini were acetylated. Immobilized Strep-tag II served as a positive control for the detection method.\n(§2) Prior to use, the membrane was washed once with ethanol, 3 times with PBS (4 mM KH₂PO₄, 16 mM Na₂HPO₄, 115 mM NaCl, pH 7.4), and blocked with 3% (w/v) BSA in PBS/T (PBS containing 0.1% (v/v) Tween 20) for 1 h. […]\n(§3) Comparison of the membranes incubated with S1-A4 and wild-type Lcn2, respectively, yielded prominent spots that only occurred upon incubation of the membrane with S1-A4 and not with wild-type Lcn2. […] With the shorter hexameric and decameric peptide sequences binding of S1-A4 to the minimal motives VFFAED and FFAEDV was detected."}, "[3]": {"biological_target": "T3, Aβ40 hexamer FFAEDV on SPOT membrane", "T3 construct": "Called a minimal motif found with the hexameric and decameric peptides", "T3 peptide": "Ac-FFAEDV-{SPOT membrane}", "experiment": "SPOT membrane, hexameric and decameric peptides", "method": "as §1, §2, §3"}, "Trx-Aβ28 fusion protein [4]": {"biological_target": "T4, Trx-Aβ28 fusion protein (Escherichia coli (strain K12), UniProt P0AA25 1-76 = thioredoxin, Biotin-labelled through an NHS ester (2:1) in the capture and competitive ELISAs; unlabeled in the direct ELISA and as competitor.)", "T4 construct": "the entry may be a nucleic acid; also called TrxAbeta28H6", "experiment": "direct ELISA: Trx-Aβ28 coated, mutein titrated, detected via Strep-tag II", "method": "The Aβ targets Trx-Aβ28 and MBP-Aβ40 as well as the control protein maltose binding protein (MBP) were immobilized at 2 μM in PBS over night. Bound Lcn2 muteins were detected via their Strep-tag II using Streptavidin/AP followed by a chromogenic reaction with pNPP. As a control, the binding of wild-type (wt) lipocalin was tested. The data were fitted to a monovalent binding model.\nAlternatively, for a “direct” ELISA, 2 μM unlabeled Aβ40 target from Example 2 was adsorbed onto a 96-well MaxiSorp polystyrene microliter plate (Nunc, Langenselbold, Germany) and incubated with the purified Lcn2 mutein, which was detected via the Strep-tag II using a 1:1500 dilution of Streptavidin/AP conjugate (GE Healthcare UK Ltd, Buckinghamshire, UK). As a control, 2 μM MBP from Example 2 was adsorbed onto the ELISA plate. Absorption at 405 nm was measured in a SpectraMax 250 reader (Molecular Devices, Sunnyvale, USA)."}, "Trx-Aβ28 fusion protein [5]": {"biological_target": "T4, Trx-Aβ28 fusion protein", "experiment": "capture ELISA: mutein captured, biotinylated Trx-Aβ28 titrated", "method": "FIG. 5 depicts the binding activity of the Lcn2 muteins H1-G1, S1-A4, and US7 in capture ELISAs with different biotinylated Aβ targets. StrepMAB-Immo at 10 μg/ml was immobilized on microtitre plates and employed for capturing of 1 JAM Lcn2 muteins via the Strep-tag H. In figures A to C the binding of the Lcn2 muteins S1-A4 and US7 to (A) biotinylated Aβ40, (B) biotinylated Trx-Aβ28, and (C) biotinylated MBP-Aβ40 are shown. Binding was detected by incubation with ExtrAvidin/AP and a subsequent chromogenic reaction with pNPP. Ovalbumin (Ova), thioredoxin (Trx), and maltose binding protein (MBP) were used as negative controls. Additionally, binding of wild-type (wt) lipocalin was tested. The data were fitted to a monovalent binding model.\nFor selective capturing of the Lcn2 muteins carrying the C-terminal Strep-tag II (Schmidt and Skerra (2007) Nat. Protoc. 2, 1528-1535), a 96-well MaxiSorp polystyrene microtitre plate (Nunc, Langenselbold, Germany) was coated with 10 μg/mL StrepMAB-Immo (IBA, Göttingen, Germany) in PBS over night at 4° C. and blocked with 3% (w/v) BSA in PBS/T at room temperature for 1 h. After 3 washing steps with PBS/T, 50 μL of a 1 μM solution of the purified Lcn2 muteins from Example 7 were applied to all wells for 1 h. After washing, 50 μL of a dilution series of the biotinylated targets Aβ40, MBP-Aβ40 or Trx-Aβ28 from Example 2 were added and incubated for 1 h whereby the biotinylated forms of Ova, MBP and Trx from Example 2 served as negative control proteins. The wells were washed again and bound conjugate was detected with 50 μL of ExtrAvidin/AP conjugate (Sigma-Aldrich, Steinheim, Germany) diluted 1:5000 in PBS/T for 1 h, followed by signal development in the presence of 100 μL 0.5 mg/mL p-nitrophenyl phosphate (AppliChem, Darmstadt, Germany) in 100 mM Tris/HCl, pH 8.8, 100 mM NaCl, 5 mM MgCl₂."}}}
{"binder": "Lcn2 mutein S1-A4 (designed binder) QDSTSDLIPAPPLSKVPLQQNFQDNQFHGKWYVVGVAGNYTLREDKDPLKMYATIYELKEDKSYNVTSVGFRLKKCNYKIRTFVPGSQPGEFTLGIIKSQPGMTSYLVRVVSTNYNQHAMVFFKTVGQNREMFNITLYGRTKELTSELKENFIRFSKSLGLPENHIVFPVPIDQCIDG", "values": [{"measurement": "binding result", "setting": "[1]", "value": "binds"}, {"measurement": "binding result", "setting": "[2]", "value": "binds"}, {"measurement": "binding result", "setting": "[3]", "value": "binds"}, {"measurement": "Kd", "setting": "Trx-Aβ28 fusion protein [4]", "value": 16.2, "unit": "nM"}, {"measurement": "Kd", "setting": "Trx-Aβ28 fusion protein [5]", "value": 1.9, "unit": "nM"}]}
